# Where two headings read alike, the source gives them in different places.
# Tests used:
# Assay in all cases: EMSA
# RBPMS isoform A [1] = target: T1, RBPMS isoform A (Homo sapiens, UniProt Q93062 1-196)
# RBPMS2 [2] = target: T2, RBPMS2 (UniProt Q6ZRY4 1-209)
# RBPMS isoform A [3] = target: T1, RBPMS isoform A; remark: listed apart in the source
# RBPMS 1-144 = RBPMS 1-144 (Homo sapiens, UniProt Q93062 1-144)
# RBPMS 1-100 = RBPMS 1-100 (Homo sapiens, UniProt Q93062 1-100)
# RBPMS isoform A [4] = target: T1, RBPMS isoform A; remark: listed apart in the source
# RBPMS2 [5] = target: T2, RBPMS2; remark: listed apart in the source
# T2 sequence (Q6ZRY4 whole entry, canonical isoform): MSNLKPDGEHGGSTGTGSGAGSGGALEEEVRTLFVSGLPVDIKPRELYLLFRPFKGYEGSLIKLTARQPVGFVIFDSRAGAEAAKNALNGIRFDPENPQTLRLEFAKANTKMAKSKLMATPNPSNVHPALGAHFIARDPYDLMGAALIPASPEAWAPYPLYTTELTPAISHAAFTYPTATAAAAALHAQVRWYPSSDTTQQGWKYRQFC
Binder,binding result (RBPMS isoform A [1]),binding result (RBPMS2 [2]),other results
AAAAAAAAAAAAAAAAAA (ssRNA) [A18],no binding,,
UACUCACUCACUCUCCACGAG (ssRNA) [UBE2V1 or SRM 21-nt wt (a)],binds,,
GCCGCCGCCGCCGCCGCC (ssRNA) [(GCC)6],no binding,,
CAUCAUCAUCAUCAUCAU (ssRNA) [(CAU)6],no binding,no binding,
CUCUCUCUCUCUCUCUCU (ssRNA) [(CU)9],no binding,no binding,
UUUUUUUUUUUUUUUUUU (ssRNA) [U18],no binding,,
ACACACACACACACACAC (ssRNA) [(AC)9],,binds,binding result (RBPMS isoform A [3]): binds; binding result (RBPMS 1-144): binds; binding result (RBPMS 1-100): no binding
CCCUCACUCACCAAACACGUG (ssRNA) [UBE2V1 or SRM 21-nt wt (b)],binds,,
CACCACCACCACCACCAC (ssRNA) [(CAC)6],binds,binds,
GGCGGCGGCGGCGGCGGC (ssRNA) [(GGC)6],no binding,,
ACACACACACACAC (ssRNA) [(AC)7],,,binding result (RBPMS isoform A [4]): binds
AGAGAGAGAGAGAGAGAG (ssRNA) [(AG)9],no binding,,
AGGCACUUUCAACUUCACUCC (ssRNA) [ETF1 21-nt wt],binds,,binding result (RBPMS2 [5]): binds
